According to the nanobody polyreactivity screen of Harvey et al. (2022):

Experiment: yeast display, Sf9 membrane polyspecificity reagent, FACS + sequencing; frameworks hold sequencing errors
Outline: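 Synthetic nanobody libraries on Saccharomyces cerevisiae BJ5465 were galactose-induced for 36–48 hours, stained 1 hour at 4 °C with 10% biotinylated, detergent-solubilized Sf9 membrane reagent and enriched on streptavidin microbeads. FACS then separated cells into low and high (top ~1%) gates by anti-HA (expression) and streptavidin (reagent binding) fluorescence. Genes were colony-PCR amplified, MiSeq 2 × 250 sequenced and CDR-length filtered. A clone's polyreactivity label is that of its gate of origin.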

Sequence | polyreactivity (PSR sort gate)
QVQLVESGGGLVQAGGSLRLSCAASGLILYHYAMGWYRQAPGKERELVAAISRSGGRTSYADSVKGRFTISRDNAKNTVYLQMNSLKPEDTAVFYCAAEKVGTRPSRDYDYWGQGTQVTVSS | high polyreactivity
QVQLVESGGGLVQAGGSLRLSCAASGITFGYNAMGWYRQAPGKERELVASISYSGDSTYYADSVKGRFTISRDNAKNTVYLQMNSLKPEDTAVYYCNVRNRPGGEINDYDYWGQGTQVTVSS | low polyreactivity
QVQLVEAGGGLVQAGGSLRLSCAASGQIFRKNARGWYSQAPGKERELVAAINSGGSTKYADSVKGRFTISRDNAKNTVYLQMNSLKPEDTAVDYCAARGRYGVPPGRAHDNWRQGTQVTVSS | high polyreactivity
QVQLVESGGGLVQAGGSLRLSCAASGSTFGRYAMGWYRQAPGKEREMVAGITYGSTYYADSVKGRFTISRDNAKNTVYLQMNSLKPEDTAVYYCAADLSYTCVHGYRSDTLMDYWGQGTQVTVSS | low polyreactivity
QVQLVDSGGGLVQAGGSLRLSCAASGSILVYYAMGWYRQAPGKERELVAAISSGGSTNYADSVKGRFTISRDNANNTVYLKINSLKPEDTAVYYCAKPDRTGWLEGDYWGQGTQVSVSS | low polyreactivity
QVQLVESGGGLVQAGGSLRLSCAASGRTFYGYTMGWYRQAPGKERELDAAIRTSGGSTYADSVKGRFTISRDNAKNTVYLQMNSLKPEDTAVYYCAAPRVVYYGTAPAYRYDYWGQGTQVTVSS | high polyreactivity
QVQLVESGGCLVQAGGSLRLSCAASGSTIPLYAMGWYIQAPGKERELVAAITSGGGNTYYADSVKGRYTISRDNAKNTVYLQKTSLKPDDTAVYYCAAVVGYKSYYSYEYDYWGQGTQVNVSS | low polyreactivity
QVQIVESRGGLVQAGGSLSLSCAASGRIFDYYAMGWYRQPPGKERELVAAISSSVGNTYYADSVKGRFTISRDNSKNTVYLQMNSLKPEVTAVYYCADYSYVRSSYEVEYDYWGQGTQVTVSS | low polyreactivity
QVQLVESGGGLVQAGGSLRLSCAASGRIFLSNAMGWYRQAPGKERELVAAISWTGGSTYYADSVKGRFTISRDNAKNTVYLQMNSLKPEDTAVYYCAASTVGQTYSDYVDTYDYWGQGTQVTVSS | low polyreactivity
QVQLVESGGGLVQAGGSLRLSCAASGFTFVSYAMGWYRQAPGKERELVAAITSNGGSTYYADSVKGRFTISRDNAKNTVYLQMNSLKPEDTAVYYCAAAGFWHGYFGYGYWGQGTQVTVSS | low polyreactivity
QVQLVESGGGLVQAGGSLRLSCAASGFTFYYYAMGWYRQAPGKERELVAAINWSGGTTYYADSVKGRFTISRDNAKNTVYLQMNSLKPEDTAVYYCAVSVFTVAPYRRYDYWGQGTQVTVSS | high polyreactivity
QVQLVESGGGLVQAGGSLRLSCAASGRTFRGYVMGWYRQAPGKERELVAAISKSGGSTYYADSVKGRFTISRDNAKNTVYLQMNSLKPEDTAVYYCSKNYRYSVFYDGFDYWGQGTQVTVSS | low polyreactivity
QVQLVETGGGLVQAGGSLRLSCAASGFIFRGNAMGWYRQAPGKERELVAAISKRGGSTNYADSVKGRFTISRDNAKNTVYLQMNSLKPEDTAVYYCNAEGIYRQPRGYVYRYDYWGQGTQVTVSS | high polyreactivity
QVQIVESRGGLVQAGGSLRLSCAASGRILYLYAMGWYRQAPGKERELVARISQRDGSTYYADSVKGRFTISRDNAKNNDYLHMNSLKPEDTAVYYCNAVFSRGSYGYSYDYWGQGTQVTVSS | low polyreactivity
QVQLVESGGGLVQAGGSLRLSCAASGSTFYNYAMGWYRQAPGKERELVAAIRNGGGTNYADSVKGRFTISRDNAKNTVYLQMNSLKPEDTAVYYFNKAYGVSGPGVDYWGQGTQVTVSS | low polyreactivity
QVQLVESGGGLVQAGGSLRLSCAASGRIFYPYAMVWYRQAPGKERELVAGISFRDGSRYYADSVKGRFTISRDNAKNTVYLQMNSLKPEDTAFYYSAAVGQTHTTSPLSTKFDYWGQGTQVTVSS | low polyreactivity
QVQLVESGGGLVQAGGSLRLSSAASGRTFYYYAFGWYRQAPGKERELVARITAICGRTYYADSVKGRFTISLDNAKNTVYLQMNCLKPEDTAVYYCAAASWPAYSYYPFYYWGQGSQVTVSS | high polyreactivity
QVQLVESGGGLVQAGGSLRLSCAASGIIFGGYAMGWYRQAPGKERELVASITYDGGSTSYEDSVKGRFTISRDNAKNTVYLQMNSLKPEDTAVYYCNAELFSVNGYDYWGQGTQVTVSS | low polyreactivity
QVQLVESGGGLVQAGGSLRLSCAASGSTLAVYPMGWYRQAPGKERELVAVIDRGGSTYYADSVKGRFTISRDNAKNTVYLQMNSLKPEDTAVFNCNARRVKGYGYWGHGTQVTVSS | high polyreactivity
QVQLVESGGVLVQAGGSLRLSCAASGRIFLRNVMGWYRQAPGKERELVAAISSSGGRTYYADSVKGRFTISRDNAKNSVYLQMNSLKPEDTAVYYCANLSSSRLPSEMEYWGQGTQVTVSS | high polyreactivity
QVQLVESGGGLVQAGGSLSLSCAASGSIFRGNAMGWYRQAPGKERELVAANSYSSGTTYYADSVKGRFTISRDNAKNTVYFQMNSLKPEDTAVYYCATRYYRGYVRGTHHVGGYYYRGQGTQVTVSS | low polyreactivity
QVQLVESGGGLVQAGGSLRLSCAASGSIFDFYAMGWYRQAPGKERELVAAISGSGGSTYYADSVKGRFTISRDNAKNTVYLQMNSLKPEDTAVYYCSYYYWGQGTQVTVSS | low polyreactivity

Sequence | polyreactivity (PSR sort gate)
QVQLVESGGGLVHAGGSLRLSCAASGILFGYYAIGWYRQAPGKERELVAAITSGSSTDYADSVKGRFTISRDNAKNTFYLQMNSLKPEDTAVYYCNAVTSASTYTFPFDYWGQGTQVTVSS | low polyreactivity
QVQLVESGGCLVQAGGSIRLSCAASGSILGFNAMGWSRQAPGKERELVAAISTSGSSTYYADSVKGRFTISRDNATISVYLLMNSLIPEDTAVYYCAKRRGGSRPYYYWGQRTQVTVSS | high polyreactivity
QVQLVESGGGLVQAGGSLRLSCAASGYTFGYYAMGWYRQAPGKERELVAAISYSGGTTYYADSVKGRFTISRDNAKNTVYLQMNSLKPEDTAVYYCNKRYWVRTGKVSSYDYWGQGTQVTVSS | high polyreactivity
QDQLVESAGGLLQAGGSLRLSCAASGSTFKYNAMGWYRQAPGKERELVDSITRGGNTNYADSVKGRFTISRDNAKNTVYLLMNSLKTEDTAFYYCAAQLMRDLRSPYSYNYWGQGTQVTVSS | low polyreactivity
QVQLVESGGGLVQAGGSLRLSCAASGRIFRYYTMGWYRQAPGKERELVAAISGRGGRTYYADSVKGRFTISRDNAKNTVYLQMNSLKPEDTAVYYCNAYDHPIYRLDYWGQGTQVTVSS | high polyreactivity
QVQLVESGGGLVQAGGSLRLICAASGIIFGYYAMGWYRQAPGKERELVAAITSGASTDYADSVKGRFTISRDNAKNTFYLQMNSLKPEDTAVFFCNADTSASTYTFPFDYCGQGTQVTVSS | low polyreactivity
QVQLVESGGGLVQAGGSLRLSCAASGLIFWQYAMGCYRQAPGKERELVAAISIGGSTNYADSVKGRFTISRDNAKNTVYFQMNSLKPEDTAVYYCNAAFLRQVWAGYNYWGQGTQVTVSS | high polyreactivity
QVQLVESGGGLVQAGGSLRLSCAASGRTFYYYAMGWYRQAPGKERELVAAISWTGGNTYYADSVKGRFTISRDNAKNTVYLQMNSLKPEDTAVYYCAKQTRGYVRGPMYYWGQGTQVTVSS | high polyreactivity
QVQLVESGGGLVQAGGSLRLSCAASGLILPDYAMGWYRQAPGKERELVAAISQRGGSTYYADSVKGRFTISRDNAKNSVYLQMYSLKPEDTAVYYCNALFRLRAYAEMDYWGQGTQVTVSS | high polyreactivity
QVQLVESGGGLVQAGGSLRLSCAASGRTFSAYVMGWYRQAPGKEREFVATIRRTGSTYYADSVKGRFTISRDNAKNTVYLQMNSLKPEDTAVYYCNRGSFPSVQGSYPGYGYWGQGTQVTVSS | high polyreactivity
QVQLVESGGGLVQAGGSLRLSCAASGITFADNAMGWYRPAPGKERELVAAITSGGSTYYADSVKGRFTISRDNAKNTVYLQMNSLKPEDTAVYYCNVRVRRLFYWARLVAYDYWGQGTQVTVSS | high polyreactivity
QVQLVESGGGLVQAGGSLRLSCAASGRIFGCYSMGWYRPAPGKEREEVAAITWSGTSTYYADSVKGRFTISRENAKNTVYLQMNSLQPEDTAVYYCAADSLSGSAPTYYSTLEYWGQGTQVTVSS | low polyreactivity
QVQLVESGGGLVQAGGSLRLSCAASGSIFPYYTMGWYRQAPGKERELVAAINYSGASTYYADSVKGRFTISRDNAKNTVYLQMNSLKPEDTAVYYCAADYPPLYRKYVYWGQGTQVTVSS | low polyreactivity
QVQLVESGGGLVQAGGSLRLSSAASGRIFYRNAMGWCRQAPGKERELVASITSAGRRYYADSVKGRFTISRDNAKNTVYLQMNSLKPEDTAVYYCAVRVAVLLNLYGYWGQGTQVTVSS | low polyreactivity
QVQLVESVGGLVQAGGSLRLSCAASGFTFTWYDMGWYRQAPGKERELVAAITTDGGSTYYADSVKGRFTISRDNATNTVYLQMNSLKPEDTEVYYCAAAGYLPFPVEYEYWGQGTQVTVSS | high polyreactivity
QGQLVESGGGLVQAGGSLRLSCAASGSTFWRYAMGWYRQAPGKERELVAAISRSGGSTYYADSVKGRFTISRDNAKNTVYLQMHSLKPEDTAFYYCAARYPTPYRKLGSWGQGTQVSVSS | high polyreactivity
QDQLVESGGGLVQAGGSLRLSCAAYGRTFVPYAMGWYRQAPGKEREFVAVITWGGGSTYYADSVKGRFTISRDNAKNTVYLQMNSLKPEDTAVYYCAARNRRATGLGSRYGYWGQGTQVTVSS | high polyreactivity
QVQLVESGGGLVQAGGSLRLSGAASGSSFLRNAMGWSRQAPGKERELVATISTGSGRTYYADSVKGRFTISRDNAKNTVYLQMTSLKPEDTAVYYCAASRTLRKHRYEYWGQGTKVTVSS | high polyreactivity
QVQLVESGGGLVQAGGSLRLSCAASGSIFQFYTMGWYRQAPGKERELVAAISSGGTRRYYADSVKGRFTISRDNAKNTVYLQMNSLKPEDTAVYYCAAPWSSSWSGVRTRMGYWGQGTQVTVSS | high polyreactivity
QVQLVESGGGLVQAGGSLRLSCAASGRTFYKNTMGWYRQAPGKERELVATITRRGGTTYYADSVKGRFTISRDKAKNTVYLQMNSLKPEDTAVYYCAKDASTEKYDYWGQGTQVTVSS | low polyreactivity
QVHLVESGGGLVQAGGSLRLSCAASGLTFYGNAMGCYRQAPGKERELVAAISSSGGTTYYADSVKGRFTISRDNAKNTVYLQMNSLKPEDTAVYYCAARPSGGFESTRTRDYWGQGTQVTVSS | low polyreactivity
